In patent US20180360932A1 (OPKO BIOLOGICS, published 2018):

Assays:
[1] = target: MOD-5014 (FVIIa-CTP3, activated Factor VII-CTP-CTP-CTP) (human) (UniProt P08709); assay: cell-based or functional assay
[2] = target: Tissue factor (TF), P13726; assay: cell-based or functional assay
Chain of Tissue factor (TF), P13726 (P13726 33-295): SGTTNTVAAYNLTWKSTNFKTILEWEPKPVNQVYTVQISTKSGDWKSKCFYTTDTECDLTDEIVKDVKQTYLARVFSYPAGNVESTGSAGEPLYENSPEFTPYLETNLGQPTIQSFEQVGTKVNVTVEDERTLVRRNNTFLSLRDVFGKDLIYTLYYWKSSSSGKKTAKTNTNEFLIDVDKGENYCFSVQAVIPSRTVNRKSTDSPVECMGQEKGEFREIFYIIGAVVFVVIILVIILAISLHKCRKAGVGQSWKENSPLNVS

## Tissue factor pathway inhibitor (TFPI) (from UniProt P10646 29-304)
[1]
  sensitivity of FVIIa/TF generation of FXa to TFPI inhibition, relative to MOD-5000: 124%

B1: MOD-5014 (FVIIa-CTP3; activated Factor VII-CTP-CTP-CTP), P08709 61-212 (enzyme)
chain 1: ANAFLEELRPGSLERECKEEQCSFEEAREIFKDAERTKLFWISYSDGDQCASSPCQNGGSCKDQLQSYICFCLPAFEGRNCETHKDDQLICVNENGGCEQYCSDHTGTKRSCRCHEGYSLLADGVSCTPTVEYPCGKIPILEKRNASKPQGR
chain 2: IVGGKVCPKGECPWQVLLLVNGAQLCGGTLINTIWVVSAAHCFDKIKNWRNLIAVLGEHDLSEHDGDEQSRRVAQVIIPSTYVPGTTNHDIALLRLHQPVVLTDHVVPLCLPERTFSERTLAFVRFSLVSGWGQLLDRGATALELMVLNVPRLMTQDCLQQSRKVGDSPNITEYMFCAGYSDGSKDSCKGDSGGPHATHYRGTWYLTGIVSWGQGCATVGHFGVYTRVSQYIEWLQKLMRSEPRPGVLLRAPFPSSSSKAPPPSLPSPSRLPGPSDTPILPQSSSSKAPPPSLPSPSRLPGPSDTPILPQSSSSKAPPPSLPSPSRLPGPSDTPILPQ
modifications: here or on the partner: CTP units may be O-glycosylated (sites not given); gamma-carboxyglutamic acid (Gla) residues in the N-terminal region (positions not given)
[2]
  ETP (TG; MOD-5014 1.25 ug/ml + TF 0.5 pM; run 1): 264
  ETP (TG; MOD-5014 1.25 ug/ml + TF 1 pM; run 1): 484
  ETP (TG; MOD-5014 1.25 ug/ml + TF 2.5 pM; run 1): 1120
  ETP (TG; MOD-5014 1.25 ug/ml + TF 5 pM; run 1): 1600
  ETP (TG; MOD-5014 2.5 ug/ml + TF 0.5 pM; run 1): 245
  ETP (TG; MOD-5014 2.5 ug/ml + TF 0.5 pM; run 2): 317
  ETP (TG; MOD-5014 2.5 ug/ml + TF 1 pM; run 1): 448
  ETP (TG; MOD-5014 2.5 ug/ml + TF 1 pM; run 2): 760
  ETP (TG; MOD-5014 2.5 ug/ml + TF 2.5 pM; run 1): 1030
  ETP (TG; MOD-5014 2.5 ug/ml + TF 2.5 pM; run 2): 1110
  ETP (TG; MOD-5014 2.5 ug/ml + TF 5 pM; run 1): 1550
  ETP (TG; MOD-5014 2.5 ug/ml + TF 5 pM; run 2): 1600
  ETP (TG; MOD-5014 5 ug/ml + TF 0.5 pM; run 1): 344
  ETP (TG; MOD-5014 5 ug/ml + TF 1 pM; run 1): 490
  ETP (TG; MOD-5014 5 ug/ml + TF 2.5 pM; run 1): 982
  ETP (TG; MOD-5014 5 ug/ml + TF 5 pM; run 1): 1510
  ETP (TG; MOD-5014 10 ug/ml + TF 0.5 pM; run 2): 460
  ETP (TG; MOD-5014 10 ug/ml + TF 1 pM; run 2): 754
  ETP (TG; MOD-5014 10 ug/ml + TF 2.5 pM; run 2): 1060
  ETP (TG; MOD-5014 10 ug/ml + TF 5 pM; run 2): 1600
  ETP; thrombin generation in severe hemophilia A pooled plasma, MOD-5014 5 ug/kg (FIG. 83), TF 0.5 pM, run #2: 354
  ETP; thrombin generation in severe hemophilia A pooled plasma, MOD-5014 5 ug/kg (FIG. 83), TF 1 pM, run #2: 754
  ETP; thrombin generation in severe hemophilia A pooled plasma, MOD-5014 5 ug/kg (FIG. 83), TF 2.5 pM, run #2: 1010
  ETP; thrombin generation in severe hemophilia A pooled plasma, MOD-5014 5 ug/kg (FIG. 83), TF 5 pM, run #2: 1530
  Lag time (TG; MOD-5014 1.25 ug/ml + TF 0.5 pM; run 1): 4.67 min
  Lag time (TG; MOD-5014 1.25 ug/ml + TF 1 pM; run 1): 2.67 min
  Lag time (TG; MOD-5014 1.25 ug/ml + TF 2.5 pM; run 1): 2.33 min
  Lag time (TG; MOD-5014 1.25 ug/ml + TF 5 pM; run 1): 1.33 min
  Lag time (TG; MOD-5014 2.5 ug/ml + TF 0.5 pM; run 1): 6.67 min
  Lag time (TG; MOD-5014 2.5 ug/ml + TF 1 pM; run 1): 3 min
  Lag time (TG; MOD-5014 2.5 ug/ml + TF 1 pM; run 2): 3.33 min
  Lag time (TG; MOD-5014 2.5 ug/ml + TF 2.5 pM; run 1): 2.63 min
  Lag time (TG; MOD-5014 2.5 ug/ml + TF 2.5 pM; run 2): 2.67 min
  Lag time (TG; MOD-5014 2.5 ug/ml + TF 5 pM; run 1): 3.67 min
  Lag time (TG; MOD-5014 2.5 ug/ml + TF 5 pM; run 2): 1.67 min
  Lag time (TG; MOD-5014 5 ug/ml + TF 0.5 pM; run 1): 5.67 min
  Lag time (TG; MOD-5014 5 ug/ml + TF 1 pM; run 1): 3 min
  Lag time (TG; MOD-5014 5 ug/ml + TF 2.5 pM; run 1): 3 min
  Lag time (TG; MOD-5014 5 ug/ml + TF 5 pM; run 1): 1.67 min
  Lag time (TG; MOD-5014 10 ug/ml + TF 0.5 pM; run 2): 8.67 min
  Lag time (TG; MOD-5014 10 ug/ml + TF 2.5 pM; run 2): 3 min
  Lag time (TG; MOD-5014 10 ug/ml + TF 5 pM; run 2): 1.67 min
  Lag time; thrombin generation in severe hemophilia A pooled plasma, MOD-5014 5 ug/kg (FIG. 83), TF 0.5 pM, run #2: 7
  Lag time; thrombin generation in severe hemophilia A pooled plasma, MOD-5014 5 ug/kg (FIG. 83), TF 1 pM, run #2: 3.67
  Lag time; thrombin generation in severe hemophilia A pooled plasma, MOD-5014 5 ug/kg (FIG. 83), TF 2.5 pM, run #2: 2.67
  Lag time; thrombin generation in severe hemophilia A pooled plasma, MOD-5014 5 ug/kg (FIG. 83), TF 5 pM, run #2: 2
  Peak (TG; MOD-5014 1.25 ug/ml + TF 0.5 pM; run 1): 9.04
  Peak (TG; MOD-5014 1.25 ug/ml + TF 1 pM; run 1): 27.4
  Peak (TG; MOD-5014 1.25 ug/ml + TF 2.5 pM; run 1): 99.1
  Peak (TG; MOD-5014 1.25 ug/ml + TF 5 pM; run 1): 231
  Peak (TG; MOD-5014 2.5 ug/ml + TF 0.5 pM; run 1): 10.3
  Peak (TG; MOD-5014 2.5 ug/ml + TF 0.5 pM; run 2): 11.2
  Peak (TG; MOD-5014 2.5 ug/ml + TF 1 pM; run 1): 22.6
  Peak (TG; MOD-5014 2.5 ug/ml + TF 1 pM; run 2): 30.4
  Peak (TG; MOD-5014 2.5 ug/ml + TF 2.5 pM; run 1): 93.2
  Peak (TG; MOD-5014 2.5 ug/ml + TF 2.5 pM; run 2): 105
  Peak (TG; MOD-5014 2.5 ug/ml + TF 5 pM; run 1): 241
  Peak (TG; MOD-5014 2.5 ug/ml + TF 5 pM; run 2): 245
  Peak (TG; MOD-5014 5 ug/ml + TF 0.5 pM; run 1): 13.2
  Peak (TG; MOD-5014 5 ug/ml + TF 1 pM; run 1): 28.3
  Peak (TG; MOD-5014 5 ug/ml + TF 2.5 pM; run 1): 94.2
  Peak (TG; MOD-5014 5 ug/ml + TF 5 pM; run 1): 261
  Peak (TG; MOD-5014 10 ug/ml + TF 1 pM; run 2): 32.2
  Peak (TG; MOD-5014 10 ug/ml + TF 2.5 pM; run 2): 92.2
  Peak (TG; MOD-5014 10 ug/ml + TF 5 pM; run 2): 236
  Peak; thrombin generation in severe hemophilia A pooled plasma, MOD-5014 5 ug/kg (FIG. 83), TF 0.5 pM, run #2: 14.3
  Peak; thrombin generation in severe hemophilia A pooled plasma, MOD-5014 5 ug/kg (FIG. 83), TF 1 pM, run #2: 28.6
  Peak; thrombin generation in severe hemophilia A pooled plasma, MOD-5014 5 ug/kg (FIG. 83), TF 2.5 pM, run #2: 104
  Peak; thrombin generation in severe hemophilia A pooled plasma, MOD-5014 5 ug/kg (FIG. 83), TF 5 pM, run #2: 254
  StartTail (TG; MOD-5014 1.25 ug/ml + TF 0.5 pM; run 1): 75
  StartTail (TG; MOD-5014 1.25 ug/ml + TF 1 pM; run 1): 40
  StartTail (TG; MOD-5014 1.25 ug/ml + TF 2.5 pM; run 1): 33
  StartTail (TG; MOD-5014 1.25 ug/ml + TF 5 pM; run 1): 25
  StartTail (TG; MOD-5014 2.5 ug/ml + TF 0.5 pM; run 1): 64
  StartTail (TG; MOD-5014 2.5 ug/ml + TF 0.5 pM; run 2): 75
  StartTail (TG; MOD-5014 2.5 ug/ml + TF 1 pM; run 1): 56
  StartTail (TG; MOD-5014 2.5 ug/ml + TF 2.5 pM; run 1): 34
  StartTail (TG; MOD-5014 2.5 ug/ml + TF 2.5 pM; run 2): 31
  StartTail (TG; MOD-5014 2.5 ug/ml + TF 5 pM; run 1): 23
  StartTail (TG; MOD-5014 2.5 ug/ml + TF 5 pM; run 2): 24
  StartTail (TG; MOD-5014 5 ug/ml + TF 0.5 pM; run 1): 75
  StartTail (TG; MOD-5014 5 ug/ml + TF 1 pM; run 1): 50
  StartTail (TG; MOD-5014 5 ug/ml + TF 2.5 pM; run 1): 38
  StartTail (TG; MOD-5014 10 ug/ml + TF 0.5 pM; run 2): 72
  StartTail (TG; MOD-5014 10 ug/ml + TF 2.5 pM; run 2): 34
  StartTail (TG; MOD-5014 10 ug/ml + TF 5 pM; run 2): 25
  StartTail; thrombin generation in severe hemophilia A pooled plasma, MOD-5014 5 ug/kg (FIG. 83), TF 1 pM, run #2: 69
  StartTail; thrombin generation in severe hemophilia A pooled plasma, MOD-5014 5 ug/kg (FIG. 83), TF 2.5 pM, run #2: 30
  StartTail; thrombin generation in severe hemophilia A pooled plasma, MOD-5014 5 ug/kg (FIG. 83), TF 5 pM, run #2: 23
  tt Peak (TG; MOD-5014 1.25 ug/ml + TF 0.5 pM; run 1): 22.3
  tt Peak (TG; MOD-5014 1.25 ug/ml + TF 1 pM; run 1): 10.3
  tt Peak (TG; MOD-5014 1.25 ug/ml + TF 2.5 pM; run 1): 8
  tt Peak (TG; MOD-5014 1.25 ug/ml + TF 5 pM; run 1): 4.67
  tt Peak (TG; MOD-5014 2.5 ug/ml + TF 0.5 pM; run 1): 22
  tt Peak (TG; MOD-5014 2.5 ug/ml + TF 2.5 pM; run 1): 8.35
  tt Peak (TG; MOD-5014 2.5 ug/ml + TF 2.5 pM; run 2): 8.33
  tt Peak (TG; MOD-5014 2.5 ug/ml + TF 5 pM; run 2): 4.67
  tt Peak (TG; MOD-5014 5 ug/ml + TF 0.5 pM; run 1): 21.3
  tt Peak (TG; MOD-5014 5 ug/ml + TF 1 pM; run 1): 10.7
  tt Peak (TG; MOD-5014 5 ug/ml + TF 2.5 pM; run 1): 8.33
  tt Peak (TG; MOD-5014 5 ug/ml + TF 5 pM; run 1): 4.67
  tt Peak (TG; MOD-5014 10 ug/ml + TF 1 pM; run 2): 33.7
  tt Peak (TG; MOD-5014 10 ug/ml + TF 2.5 pM; run 2): 8.67
  tt Peak; thrombin generation in severe hemophilia A pooled plasma, MOD-5014 5 ug/kg (FIG. 83), TF 0.5 pM, run #2: 21.3
  tt Peak; thrombin generation in severe hemophilia A pooled plasma, MOD-5014 5 ug/kg (FIG. 83), TF 1 pM, run #2: 12.3
  tt Peak; thrombin generation in severe hemophilia A pooled plasma, MOD-5014 5 ug/kg (FIG. 83), TF 2.5 pM, run #2: 7.67
  tt Peak; thrombin generation in severe hemophilia A pooled plasma, MOD-5014 5 ug/kg (FIG. 83), TF 5 pM, run #2: 4.67
